According to publication PMC3553970:

Substrate: N[C@@H](Cc1ccc(O)cc1)C(=O)O
Assay: purified protein
Details: amino acid activation, ATP, no tRNA, 37°C, near-cognate amino acid

B1: M. mobile PheRS (MmPheRS) (Mycoplasma mobile 163K) (protein)
chain: MKKNLTNLRIETLEDLKIAKSNFLNNDLELKQLMNDLKLASKEQKASIGQKINFYKQEIEQFFLTKKEEIEKKEVLKKIQDEFIDVFEEVNFSSSLHPLTLIENRFRTWFLNNGYYETEGSEITTDKINFELLNIPKDHPSRDMQDSLYLEKEQNGDQLLLRTHNTGFSIIELIKNKNKAFSAFSIGKVYRNDEDDNTHSHQFSQVDVIVAGKYNFPNLMWLLKSLLSYVFEEEVKIRLRPSYFPFTEPSCEVDVFYKNKWIEVLGSGIIHENVMKAAGYTNDMNALAWGIGIERIAMIKYGIDNIREFYKNDIRFLKQFNLEIEKLEV
Protein B1 has a Km of 3.9 ± 0.54 mM, a kcat of 8 s⁻¹ and a kcat/Km of 2100 M⁻¹ s⁻¹.
